For experiment [1], the target named is T1, EGFR-ECD (UniProt P00533 25-645). Briefly: BLI. (In general: BLI is a label-free optical method that tracks binding on a fibre tip over time.)
Experiment [2] concerns the target T1, EGFR-ECD. Kind of experiment: BLI. This is another data set of the same source.

Like-named read-outs stand apart in the source and are kept apart here.

B1: dFEB4-1 (antibody, V domains shown)
VH: AVTLDESGGGLQTPGGALSLVCKASGFTFSSHGMLWVRQAPGKGLEFVAGISTDGSSTSYGAPVKGRATISRDNGQSTVRLQLNNLRAEDTGTYYCAKDAYRCRNCAEDIDAWGHGTEVIVSS
VL: ALTQPSSVSANPGETVKITCSGGGYDGSYYYGWYQQKSPGSAPVTVIYDNTNRPSNIPSRFSGSLSGSTNTLTITGVQAEDEAVYFCGGYDRSGGIFGGGTTLTVL
The term Kd denotes the free concentration of one partner at which half of the binding sites on the other are occupied at equilibrium, for simple one-to-one binding. Read a high Kd as a looser complex. In turn, B1 came in with a dissociation constant Kd in experiment [1] of 3.7 nM.

B2: FEB4 (antibody, V domains shown)
VH: B1 VH
VL: ALTQPSSVSANPGETVKITCSGGYSDDGSYYYYGWFQQKSPGSAPVTVIYDNTNRPSNIPSRFSGSTSGSTSTLTITGVRAEDEAVYYCGSIDTGYAGIFGAGTTLTVL
In experiment [2], B2 yielded a Kd of 29.3 nM. In other words, the double-digit nanomolar range.

For the origin of these results see paper PMC8141644 (2021).
